For 33 molecules, variant/HC_K99L results are on record in patent USRE47150 (Bayer, dated 2018).

Numbering of substitutions follows the chain as printed. Names may count otherwise.

T1: mouse tissue factor pathway inhibitor (TFPI) (mouse, UniProt O54819 29-289, limits assumed)
T1 construct: bought; also called mTFPI; murine TFPI
T1 sequence (looked up): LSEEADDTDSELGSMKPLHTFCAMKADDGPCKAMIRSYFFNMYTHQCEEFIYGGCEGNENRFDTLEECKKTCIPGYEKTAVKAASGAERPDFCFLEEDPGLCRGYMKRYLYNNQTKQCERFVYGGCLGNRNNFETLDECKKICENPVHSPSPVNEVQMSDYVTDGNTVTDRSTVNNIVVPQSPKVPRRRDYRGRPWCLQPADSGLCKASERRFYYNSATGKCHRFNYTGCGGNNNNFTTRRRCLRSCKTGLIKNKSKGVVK

T2: human tissue factor pathway inhibitor (TFPI) (human, UniProt P10646 29-304, limits assumed)
T2 construct: bought; also called hTFPI; human TFPI
T2 sequence (looked up): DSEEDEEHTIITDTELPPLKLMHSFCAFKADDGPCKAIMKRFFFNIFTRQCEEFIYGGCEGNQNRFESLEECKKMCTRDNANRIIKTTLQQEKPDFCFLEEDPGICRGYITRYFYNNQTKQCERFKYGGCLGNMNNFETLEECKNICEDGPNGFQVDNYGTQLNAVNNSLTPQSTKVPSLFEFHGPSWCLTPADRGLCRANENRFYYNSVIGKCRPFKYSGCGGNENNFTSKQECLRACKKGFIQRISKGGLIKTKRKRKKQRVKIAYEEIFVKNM

B1: 2A8 HC S35D+I51E+S55R+K99L/LC Y48F+N51V+D91L+V96W (Fab, V domains shown)
VH: QVQLVESGGGLVQPGGSLRLSCAASGFTFRSYGMDWVRQAPGKGLEWVSSERGSRSSTYYADSVKGRFTISRDNSKNTLYLQMNSLRAEDTAVYYCARLYRYWFDYWGQGTLVTVSS
VL: DIELTQPPSVSVAPGQTARISCSGDNLRNYYAHWYQQKPGQAPVVVIFYDVNRPSGIPERFSGSNSGNTATLTISGTQAEDEADYYCQSWLDGVPWFGGGTKLTVLG
B2: 2A8 HC S35D+S55R+K99L/LC N26A+Y48F+N51V+D91W (Fab, V domains shown)
VH: B1 VH with E51I
VL: B1 VL with N26A, L91W, W96V
B3: 2A8 HC S35D+S55R+K99L/LC Y48F+N51V+D91W+D92S (Fab, V domains shown)
VH: B1 VH with E51I
VL: B1 VL with L91W, D92S, W96V
B4: 2A8 HC S35D+S54F+S55R+K99L/LC D91L+V96W (Fab, V domains shown)
VH: B1 VH with E51I, S54F
VL: B1 VL with F48Y, V51N
B5: 2A8 HC S35D+S55R+S56G+K99L/LC Y48F+N51V+D91W (Fab, V domains shown)
VH: B1 VH with E51I, S56G
VL: B1 VL with L91W, W96V
B6: 2A8 HC S35D+S55R+K99L/LC S21T+Y48F+N51V+D91W (Fab, V domains shown)
VH: B1 VH with E51I
VL: B1 VL with S21T, L91W, W96V
B7: 2A8 HC S35D+K99L/LC unchanged (Fab, V domains shown)
VH: B1 VH with E51I, R55S
VL: B1 VL with F48Y, V51N, L91D, W96V
B8: 2A8 HC S35D+S55R+K99L/LC Y48F+N51V+S89A+D91W+D92S+G93S+V94T+P95A (Fab, V domains shown)
VH: B1 VH with E51I
VL: B1 VL with S89A, L91W, D92S, G93S, V94T, P95A, W96V
B9: 2A8 HC S35D+S55R+K99L/LC Y48F+N51V+D91W+P95V (Fab, V domains shown)
VH: B1 VH with E51I
VL: B1 VL with L91W, P95V, W96V
B10: 2A8 HC S35D+S55R+K99L/LC Y48F+N51V+S89A+D91W (Fab, V domains shown)
VH: B1 VH with E51I
VL: B1 VL with S89A, L91W, W96V
B11: 2A8 HC S35D+S50A+S55R+K99L/LC Y48F+N51V+D91W (Fab, V domains shown)
VH: B1 VH with S50A, E51I
VL: B1 VL with L91W, W96V
B12: 2A8 HC S35D+S55R+K99L/LC R28P+Y48F+N51V+D91W (Fab, V domains shown)
VH: B1 VH with E51I
VL: B1 VL with R28P, L91W, W96V
B13: 2A8 HC S35D+S55R+K99L/LC Y48F+N51V+E80M+D91W (Fab, V domains shown)
VH: B1 VH with E51I
VL: B1 VL with E80M, L91W, W96V
B14: 2A8 HC S35D+S50A+K99L/LC Y48F+D91L+V96W (Fab, V domains shown)
VH: B1 VH with S50A, E51I, R55S
VL: B1 VL with V51N
B15: 2A8 HC S35D+K99L/LC D91L+V96W (Fab, V domains shown)
VH: B1 VH with E51I, R55S
VL: B1 VL with F48Y, V51N
B16: 2A8 HC S35D+S56G+K99L/LC Y48F+D91L+V96W (Fab, V domains shown)
VH: B1 VH with E51I, R55S, S56G
VL: B1 VL with V51N
B17: 2A8 HC S35D+S55R+K99L/LC Y48F+N51V+D91W+V94T (Fab, V domains shown)
VH: B1 VH with E51I
VL: B1 VL with L91W, V94T, W96V
B18: 2A8 HC S35D+K99L/LC Y48F+D91L+V94T+V96W (Fab, V domains shown)
VH: B1 VH with E51I, R55S
VL: B1 VL with V51N, V94T
B19: 2A8 HC S35D+R52S+K99L/LC Y48F+D91L+V96W (Fab, V domains shown)
VH: B1 VH with E51I, R52S, R55S
VL: B1 VL with V51N
B20: 2A8 HC S35D+K99L/LC Y48F+N51S+D91L+V96W (Fab, V domains shown)
VH: B1 VH with E51I, R55S
VL: B1 VL with V51S
B21: 2A8 HC S35D+S55R+K99L/LC H33Y+Y48F+N51V+D91W (Fab, V domains shown)
VH: B1 VH with E51I
VL: B1 VL with H33Y, L91W, W96V
B22: 2A8 HC S35D+K99L/LC Y48F+D91L+D92S+V96W (Fab, V domains shown)
VH: B1 VH with E51I, R55S
VL: B1 VL with V51N, D92S
B23: 2A8 HC S35D+K99L/LC Y48F+S89A+D91L+V96W (Fab, V domains shown)
VH: B1 VH with E51I, R55S
VL: B1 VL with V51N, S89A
B24: 2A8 HC S35D+S55R+K99L/LC A13S+Y48F+N51V+D91W (Fab, V domains shown)
VH: B1 VH with E51I
VL: B1 VL with A13S, L91W, W96V
B25: 2A8 HC S35D+S55R+K99L/LC D1S+Y48F+N51V+D91W (Fab, V domains shown)
VH: B1 VH with E51I
VL: B1 VL with D1S, L91W, W96V
B26: 2A8 HC S35D+S55R+K99L/LC I2Y+Y48F+N51V+D91W (Fab, V domains shown)
VH: B1 VH with E51I
VL: B1 VL with I2Y, L91W, W96V
B27: 2A8 HC S35D+S55R+K99L/LC N29K+Y48F+N51V+D91W (Fab, V domains shown)
VH: B1 VH with E51I
VL: B1 VL with N29K, L91W, W96V
B28: 2A8 HC S35D+S55R+K99L/LC Y48F+N51V+D91W+G93S (Fab, V domains shown)
VH: B1 VH with E51I
VL: B1 VL with L91W, G93S, W96V
B29: 2A8 HC S35D+K99L/LC Y48F+D91L+P95V+V96W (Fab, V domains shown)
VH: B1 VH with E51I, R55S
VL: B1 VL with V51N, P95V
B30: 2A8 HC S35D+K99L/LC Y48F+D91L+G93S+V96W (Fab, V domains shown)
VH: B1 VH with E51I, R55S
VL: B1 VL with V51N, G93S
B31: 2A8 HC S35D+R52S+S55R+K99L/LC Y48F+N51V+D91W (Fab, V domains shown)
VH: B1 VH with E51I, R52S
VL: B1 VL with L91W, W96V
B32: 2A8 HC S35D+S55G+K99L/LC Y48F+D91L+V96W (Fab, V domains shown)
VH: B1 VH with E51I, R55G
VL: B1 VL with V51N
B33: 2A8 HC S35L+S54F+K99V/LC Y48F+D91K (Fab, V domains shown)
VH: B1 VH with D35L, E51I, S54F, R55S, L99V
VL: B1 VL with V51N, L91K, W96V

The first assay concerns the target T1, mouse tissue factor pathway inhibitor …. The experiment in a line: competitive ELISA. A general note: ELISA stands for enzyme-linked immunosorbent assay.
Take B1: the variant/HC_K99L was determined as 8 ratio.
With B2, the variant/HC_K99L amounted to 4.1 ratio.
Same read-out and setting: the same measure for B3: 22.8 ratio; for B4: 12.1 ratio; for B5: 18.7 ratio.
Still for that read-out and setting: as for B6, the figure is 18.8 ratio.
B7 showed a variant/HC_K99L of 4.5 ratio.
Still for that read-out and setting: as for B8, the figure is 9 ratio; as for B9, 13.7 ratio.
In the case of B10, the variant/HC_K99L turned out to be 18.2 ratio.
On the same count and under the same terms, the same measure for B11: 12.6 ratio.
In turn, B12 registered a variant/HC_K99L of 23.2 ratio.
Turning to B13, the variant/HC_K99L stood at 21.2 ratio.
For B14, the variant/HC_K99L came to 4.6 ratio.
As for B15, the variant/HC_K99L is 5.4 ratio.
Molecule B16 displayed a variant/HC_K99L of 16.9 ratio.
Still for that read-out and setting: the same measure for B17: 19.9 ratio.
Still for that read-out and setting: the same measure for B18: 19.3 ratio; for B19: 3 ratio.
Still for that read-out and setting: the same measure for B20: 20.3 ratio.
The molecule B21 registered a variant/HC_K99L of 11.2 ratio.
Still for that read-out and setting: as for B22, the figure is 20.5 ratio; as for B23, 6.1 ratio; as for B24, 19.9 ratio.
Same read-out and setting: as for B25, the figure is 22 ratio; as for B26, 19 ratio; as for B27, 18.9 ratio.
On to B28, for which the variant/HC_K99L worked out at 16.5 ratio.
The same measure, in the same setting: the same measure for B29: 13.6 ratio; for B30: 15.6 ratio; for B31: 7.9 ratio.
Same read-out and setting: the same measure for B32: 18.2 ratio; for B33: 3.1 ratio.

Another assay has as its target T2, human tissue factor pathway inhibitor …. The assay is described as follows: competitive ELISA.
The molecule B1 had a variant/HC_K99L of 10.4 ratio.
In turn, B2 showed a variant/HC_K99L of 4.1 ratio.
In turn, B3 gave a variant/HC_K99L of 23.9 ratio.
Same read-out and setting: the same measure for B4: 14.9 ratio; for B5: 21.4 ratio.
Still for that read-out and setting: as for B6, the figure is 19.5 ratio; as for B7, 3.9 ratio.
For the molecule B8, the variant/HC_K99L was found to be 10.9 ratio.
The same measure, in the same setting: as for B9, the figure is 15.7 ratio; as for B10, 18.6 ratio; as for B11, 10.9 ratio.
Still for that read-out and setting: as for B12, the figure is 22 ratio; as for B13, 23.1 ratio; as for B14, 4 ratio.
On the same count and under the same terms, as for B15, the figure is 7.1 ratio; as for B16, 17.8 ratio; as for B17, 22.8 ratio.
Molecule B18 yielded a variant/HC_K99L of 18.6 ratio.
As to B19, the variant/HC_K99L came to 3.9 ratio.
The same measure, in the same setting: the same measure for B20: 19.9 ratio; for B21: 14 ratio; for B22: 20.7 ratio.
B23 showed a variant/HC_K99L of 4.4 ratio.
Same read-out and setting: as for B24, the figure is 20.1 ratio; as for B25, 21.9 ratio.
Same read-out and setting: the same measure for B26: 18.7 ratio.
The molecule B27 had a variant/HC_K99L of 20 ratio.
As to B28, the variant/HC_K99L was found to be 17 ratio.
For the molecule B29, the variant/HC_K99L came to 10.2 ratio.
The same measure, in the same setting: the same measure for B30: 14.2 ratio; for B31: 10.1 ratio.
The same measure, in the same setting: the same measure for B32: 18.1 ratio; for B33: 5 ratio.
